Results from USRE49583E1, “Inducible expression systems” (priority 2005, dated 2023).
Numbering of substitutions follows the chain as printed. Names may count otherwise. “Also recorded” adds a separate entry of the source.

B1: V9I F67S C68R G138D F86Y: rtTA variant with these amino acid substitutions (protein)
chain: MSRLDKSKIINSALELLNGVGIEGLTTRKLAQKLGVEQPTLYWHVKNKRALLDALPIEMLDRHHTHSRPLEGESWQDFLRNNAKSYRCALLSHRDGAKVHLGTRPTEKQYETLENQLAFLCQQGFSLENALYALSAVDHFTLGCVLEEQEHQVAKEERETPTTDSMPPLLRQAIELFDRQGAEPAFLFGLELIICGLEKQLKCESGGPADALDDFDLDMLPADALDDFDLDMLPADALDDFDLDMLPG
B2: E37Q F67S F86Y A209T: rtTA variant with these amino acid substitutions (protein)
chain: B1 chain with I9V, E37Q, R68C, D138G, A209T
B3: V9I C68R G138D F86Y: rtTA variant with these amino acid substitutions (protein)
chain: B1 chain with S67F
B4: E37Q F67S F86Y: rtTA variant with these amino acid substitutions (protein)
chain: B1 chain with I9V, E37Q, R68C, D138G
B5: V9I F67S E157K F86Y: rtTA variant with these amino acid substitutions (protein)
chain: B1 chain with R68C, D138G, E157K
B6: V9I F67S R171K F86Y: rtTA variant with these amino acid substitutions (protein)
chain: B1 chain with R68C, D138G, R171K
B7: V9I F67S G138D F86Y: rtTA variant with these amino acid substitutions (protein)
chain: B1 chain with R68C
B8: V9I F67S C68R G138D F86Y A209T: rtTA variant with these amino acid substitutions (protein)
chain: B1 chain with A209T

Tested on: chromosomally integrated CMV-7tetO luciferase reporter in HeLa X1/6 cells
Assay: rtTA activity assay, HeLa X1/6 cells with integrated CMV-7tetO luciferase reporter (Example 1, FIG. 2-3, 5, 14, 15)
Assay type: cell-based
Details: for basal / background activity in the absence of inducer: no dox or other effector; for rtTA activation by minocycline (Mc): 0-10000 ng/ml Mc
Description: To test whether this rtTA optimization reflects a specific adaptation to the viral LTR-2ΔtetO promoter, we assayed rtTA activity with a reporter gene construct in which luciferase expression is under the control of a minimal CMV promoter coupled to an array of seven tetO elements. […] Thus, the observed mutations in rtTA are not virus-specific adaptations, but are general improvements of the Tet-on system. We also assayed rtTA activity in HeLa X1/6 cells that contain chromosomally integrated copies of the CMV-7tetO luciferase reporter construct (FIG. 2C). In these cells, the evolved rtTAs show a similar pattern of activity as with episomal reporter gene constructs in C33A cells. Thus, these mutations improve rtTA activity independent of the type of promoter and the episomal or chromosomal status of the target gene.
The V10 variant needs only 44 ng/ml dox to reach this activity level, which reflects a 23-fold higher dox-sensitivity than the wild-type rtTA.
rtTA activity assay. Two firefly luciferase reporter constructs with different promoter configurations were used. pLTR-2ΔtetO-luc contains the LTR-2ΔtetO promoter derived from the HIV-rtTA molecular clone (Marzio et al. 2001; Marzio et al. 2002). pCMV-7tetO-luc, previously named pUHC13-3 (Gossen et al. 1992), contains seven tetO elements located upstream of a minimal CMV promoter. The plasmid pRL-CMV (PROMEGA®, Madison, Wis., USA), in which the expression of Renilla luciferase is controlled by the CMV promoter, was used as an internal control to allow correction for differences in transfection efficiency.
C33A and HeLa X1/6 cells were grown in 2-cm^2 wells to 60% confluency and transfected by the calcium phosphate precipitation method (Das et al. 1999). C33A cells were transfected with 0.4 ng pCMV-rtTA (wild-type or mutant), 20 ng pLTR-2ΔtetO-luc or pCMV-7tetO-luc, 0.5 ng pRL-CMV, and 980 ng pBluescript as carrier DNA. HeLa X1/6 cells were transfected with 8 ng pCMV-rtTA, 2.5 ng pRL-CMV, and 990 ng pBluescript. The amount of the DNA constructs was optimized for each cell type to keep rtTA-mediated transactivation within the linear range and to avoid squelching of transcription factors. Cells were cultured for 48 hours in the presence of different concentrations of dox, Tc or Mc, and lysed in Passive Lysis Buffer (PROMEGA®). Firefly and Renilla luciferase activities were determined with the dual-luciferase reporter assay (PROMEGA®). The activity of the rtTA variants was calculated as the ratio of the firefly and Renilla luciferase activities, and corrected for between-session variation.
FIG. 2. Novel rtTA variants show increased activity and dox-sensitivity in different Tet systems. The transcriptional activity of rtTA variants was measured in C33A cells transfected with a plasmid carrying the firefly luciferase reporter gene under the control of the viral LTR-2ΔtetO promoter (LTR-2ΔtetO; A) or under the control of a minimal CMV-derived promoter coupled to seven tetO elements (CMV7-tetO; B). Furthermore, rtTA activity was measured in HeLa X1/6 cells (Baron et al. 1997) that contain a chromosomally integrated copy of the CMV-7tetO reporter construct (CMV7tetO-integrated; C, D). Variants V1 to V10 were compared in all three Tet systems (panels A-C) and variants V11 to V18 in the cells with the integrated reporter (panel D). Cells were transfected with the indicated rtTA expression plasmid or pBluescript as a negative control, and a plasmid constitutively expressing Renilla luciferase to correct for differences in transfection efficiency. Cells were cultured in the presence of different dox concentrations (0-1000 ng/ml). The ratio of the firefly and Renilla luciferase activities measured 2 days after transfection reflects the rtTA activity. All values were related to the wild-type (wt) rtTA activity at 1000 ng/ml dox, which was arbitrarily set at 100%. In (C and D), average values of three transfections are shown with error bars indicating the standard deviation.
FIG. 3. […]

Molecule	basal / background activity in the absence of inducer	other results
B1	no or low basal activity	–
B2	no or low basal activity	rtTA activation by minocycline (Mc) (listed as F67S E37Q F86Y A209T): particularly sensitive for minocycline; also recorded: very sensitive for minocycline; basal / background activity in the absence of inducer (listed as F67S E37Q F86Y A209T): low background activity
B3	no or low basal activity	–
B4	no or low basal activity	–
B5	no or low basal activity	–
B6	no or low basal activity	–
B7	no or low basal activity	–
B8	no or low basal activity	rtTA activation by minocycline (Mc): particularly sensitive for minocycline; rtTA activation by tetracycline (Tc) (0-10000 ng/ml Tc): particularly sensitive for tetracycline
